Measurements taken from the supplement of paper PMC10126150.
± gives the standard deviation of the averaged measurements.

Tested on: ATP
Experiment: switch fluorescence ratio, 500 uM ATP over buffer (Cy3 cluster intensity, sum of 5 cycles each) (fold (ratio)); higher = stronger signal-on switching upon ATP binding; sequences stand for … in TCGTCGGCAGCGTCAGATGTGTATAAGAGACAGTTTTTTTTTTTTTTTTTTTTTTTTT…TC
Settings: aptamer strand: ATP DNA aptamer (quencher-CACCTGGGGGAGTATTGCGGAGGAAGG + anchor), 100 nM annealed; ATP concentration: 500 uM
Outline: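 Cy3-labelled switching-strand clusters on a modified Illumina MiSeq flow-cell were annealed to 100 nM quencher-labelled ATP aptamer and imaged first in selection buffer, then after 15 min with 500 uM ATP at 22 °C. NaOH stripping and re-annealing separated each of five buffer/ATP cycles, and clusters outside 100-1000 RFU were excluded. The fluorescence ratio sums target-cycle Cy3 intensity over buffer-cycle Cy3 intensity per cluster and averages it per switch-domain sequence.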
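Note: ATP exposure 15 min at 22 °C before imaging.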

AAGACGTCAC gave a switch fluorescence ratio of 1.91 ± 0.14.
CGGGTAAGTC showed a switch fluorescence ratio of 0.995 ± 0.01.
TATTGGGGAT was tested, and the switch fluorescence ratio was 1.06 ± 0.043.
For AATAGTGACG, the switch fluorescence ratio was 1.14 ± 0.28.
AAAAATAATT showed a switch fluorescence ratio of 0.983 ± 0.028.
GGGGGGCAGT showed a switch fluorescence ratio of 1 ± 0.023.
AGTCGCGGAG was tested, and the switch fluorescence ratio was 1 ± 0.08.
CTGGTCGTGC showed a switch fluorescence ratio of 0.999 ± 0.013.
CAGGATACGC showed a switch fluorescence ratio of 1.21 ± 0.34.
GGCGCAAAGC showed a switch fluorescence ratio of 1.487 ± 0.013.
GAGTTTTCTA gave a switch fluorescence ratio of 0.9987 ± 0.0081.
For TACTCCAAGA, the switch fluorescence ratio was 2.98 ± 1.1.
With GTAGGCCATG the switch fluorescence ratio was 1 ± 0.022.
With TATCCCAGGC the switch fluorescence ratio was 1.31 ± 0.032.
ACCATGACGG was tested, and the switch fluorescence ratio was 1.044 ± 0.0092.
For ATTAGCCCGG, the switch fluorescence ratio was 0.9944 ± 0.00051.
In the case of CACTACGGCC, the switch fluorescence ratio is reported as 1.04 ± 0.043.
Work on GGTCTGGGCT yielded a switch fluorescence ratio of 0.976 ± 0.017.
In the case of GGGAAGTCAC, the switch fluorescence ratio is reported as 1.121 ± 0.0039.
Work on CGTTGCATTG yielded a switch fluorescence ratio of 1.03 ± 0.017.
AGAAATCGGA showed a switch fluorescence ratio of 1.038 ± 0.0056.
With GCTCTTGGGC the switch fluorescence ratio was 0.999 ± 0.012.
Sequence ATTTTTGACA has a switch fluorescence ratio of 1.001 ± 0.0037.
Work on CTGGAATTTT yielded a switch fluorescence ratio of 0.9949 ± 0.0028.
In the case of CATCTAGCAC, the switch fluorescence ratio is reported as 2.63 ± 0.42.
In the case of TGGCACGTAT, the switch fluorescence ratio is reported as 1.09 ± 0.03.
ACGGGGGTTA showed a switch fluorescence ratio of 1.02 ± 0.024.
With CGCTGCTCGC the switch fluorescence ratio was 1.3253 ± 0.00064.
CAGTTCGGGG showed a switch fluorescence ratio of 0.9729 ± 0.0094.
With ATCCTAGTGT the switch fluorescence ratio was 1.04 ± 0.052.
ATGGGATGGC was tested, and the switch fluorescence ratio was 0.97 ± 0.031.
AGCCTAGTTC showed a switch fluorescence ratio of 1.01 ± 0.026.
GGCCATTGTG was tested, and the switch fluorescence ratio was 0.982 ± 0.023.
With GAGGGGTTGG the switch fluorescence ratio was 0.964 ± 0.033.
In the case of GGGGTAGACT, the switch fluorescence ratio is reported as 0.995 ± 0.018.
In the case of TCGATGTTGG, the switch fluorescence ratio is reported as 0.984 ± 0.03.
GGAGGGGTTG showed a switch fluorescence ratio of 1.04 ± 0.015.
With TACTTTGCTG the switch fluorescence ratio was 1.02 ± 0.066.
TTTTAACTCT was tested, and the switch fluorescence ratio was 1.05 ± 0.015.
CGAACGGTTT was tested, and the switch fluorescence ratio was 0.989 ± 0.016.
Sequence GGGTGATCGG has a switch fluorescence ratio of 0.984 ± 0.023.
Sequence AGTATCACGG has a switch fluorescence ratio of 1.011 ± 0.0068.
Sequence AGGACGAGCA has a switch fluorescence ratio of 1.12 ± 0.015.
TCATTTTTGC was tested, and the switch fluorescence ratio was 0.979 ± 0.052.
TATGTGTTGC showed a switch fluorescence ratio of 1.03 ± 0.023.
TTTGTTCCTC gave a switch fluorescence ratio of 1.103 ± 0.005.
TTTTTTGATA gave a switch fluorescence ratio of 0.981 ± 0.022.
In the case of ATGCACCAGG, the switch fluorescence ratio is reported as 2.55 ± 0.19.
Sequence GCGGCCGTTG has a switch fluorescence ratio of 0.965 ± 0.064.
TCGGTTTCAA showed a switch fluorescence ratio of 1.009 ± 0.0056.
TTTAGGGTGC was tested, and the switch fluorescence ratio was 1.03 ± 0.079.
CCCTGTCATC was tested, and the switch fluorescence ratio was 2.1 ± 1.4.
In the case of ATGTTTTTTG, the switch fluorescence ratio is reported as 0.982 ± 0.023.
TGTTCTGCGA showed a switch fluorescence ratio of 1.43 ± 0.54.
CGTGGCTAAG showed a switch fluorescence ratio of 0.971 ± 0.046.
Work on TTTATGGAAT yielded a switch fluorescence ratio of 0.998 ± 0.015.
GAAAAAGTGG showed a switch fluorescence ratio of 0.998 ± 0.014.
CATAGCTAGG gave a switch fluorescence ratio of 1.004 ± 0.0075.
Work on TAGGTCGGTG yielded a switch fluorescence ratio of 0.993 ± 0.011.
In the case of ATGCGCACGG, the switch fluorescence ratio is reported as 1.064 ± 0.009.
In the case of TGTTTAGGTT, the switch fluorescence ratio is reported as 1.01 ± 0.071.
With AGAAGGGTTA the switch fluorescence ratio was 1.01 ± 0.017.
Sequence CTCGTTCTAT has a switch fluorescence ratio of 1.002 ± 0.0057.
With ATCTCCTGCC the switch fluorescence ratio was 1.475 ± 0.0051.
CGGAAGAAAT showed a switch fluorescence ratio of 1.02 ± 0.017.
For AGATATGAGA, the switch fluorescence ratio was 1.031 ± 0.0075.
Sequence TTTCGTTGGT has a switch fluorescence ratio of 0.982 ± 0.016.
CAAGGCATGG showed a switch fluorescence ratio of 1.05 ± 0.033.
Work on GGATAGCCGA yielded a switch fluorescence ratio of 0.99 ± 0.086.
Sequence CGCTATTTCT has a switch fluorescence ratio of 1.1 ± 0.051.
GACTACGGTT was tested, and the switch fluorescence ratio was 1.006 ± 0.0095.
Sequence TAATTTCTAA has a switch fluorescence ratio of 0.9946 ± 0.0029.
Work on TGTTTTGATG yielded a switch fluorescence ratio of 1.04 ± 0.078.
For AGATCGACGG, the switch fluorescence ratio was 1.014 ± 0.0095.
For GGATGACGTC, the switch fluorescence ratio was 1.035 ± 0.0091.
For GATACATGGG, the switch fluorescence ratio was 0.985 ± 0.038.
For GCTTTCCCTT, the switch fluorescence ratio was 1.022 ± 0.01.
For GTCCGGGGCT, the switch fluorescence ratio was 1.04 ± 0.036.
In the case of AAGTTGTCTT, the switch fluorescence ratio is reported as 0.999 ± 0.027.
Work on TTTAAGGTGG yielded a switch fluorescence ratio of 1.015 ± 0.0046.
With ATATTAGTAT the switch fluorescence ratio was 1.01 ± 0.038.
Sequence GGATTTGGGT has a switch fluorescence ratio of 0.981 ± 0.017.
In the case of GACGGGAGCT, the switch fluorescence ratio is reported as 1.06 ± 0.021.
GGCGGCTTGG gave a switch fluorescence ratio of 1.005 ± 0.0031.
Sequence TTGTGGCAAC has a switch fluorescence ratio of 1.24 ± 0.3.
Work on TTGCTAGGGA yielded a switch fluorescence ratio of 1.01 ± 0.055.
In the case of TAACTGTGAT, the switch fluorescence ratio is reported as 0.988 ± 0.025.
With ATTGGGGGTT the switch fluorescence ratio was 0.978 ± 0.018.
GGCGTAAAAG gave a switch fluorescence ratio of 1.01 ± 0.038.
AAAGTTTTGG gave a switch fluorescence ratio of 0.985 ± 0.026.
Work on GGTGTCTGT yielded a switch fluorescence ratio of 0.9738 ± 0.0044.
In the case of AGTTATTTCG, the switch fluorescence ratio is reported as 0.993 ± 0.018.
With CGAAGGGTGT the switch fluorescence ratio was 0.999 ± 0.024.
For GGACTAGGTT, the switch fluorescence ratio was 1.006 ± 0.0033.
With GGTCGGCCGG the switch fluorescence ratio was 1.0178 ± 0.00045.
Work on GGGTTTCAAG yielded a switch fluorescence ratio of 1.05 ± 0.04.
Sequence AGAGTTGGCT has a switch fluorescence ratio of 0.992 ± 0.021.
Sequence GGACGGCTGC has a switch fluorescence ratio of 1.02 ± 0.029.
GTTACTTTGT was tested, and the switch fluorescence ratio was 0.992 ± 0.0075.
Sequence GGGGGAATA has a switch fluorescence ratio of 0.993 ± 0.051.
Sequence GACTGCTTGG has a switch fluorescence ratio of 0.9518 ± 0.0063.
GAGAATGAGG showed a switch fluorescence ratio of 0.962 ± 0.0093.
For TGAGTGCAAA, the switch fluorescence ratio was 0.9933 ± 0.0023.
For GGGGGCTTTT, the switch fluorescence ratio was 1.01 ± 0.034.
TCTAAGTAAC was tested, and the switch fluorescence ratio was 1 ± 0.025.
Work on ATCCGTTTTT yielded a switch fluorescence ratio of 1 ± 0.016.
Sequence GTGCTAAGAG has a switch fluorescence ratio of 0.969 ± 0.043.
For GGATTAGTGA, the switch fluorescence ratio was 0.964 ± 0.036.
GGGGGGAACT was tested, and the switch fluorescence ratio was 0.987 ± 0.022.
Sequence CCCTAGGATT has a switch fluorescence ratio of 1.01 ± 0.03.
Work on ACTCACGGGA yielded a switch fluorescence ratio of 1.46 ± 0.36.
TTTGTATTCG gave a switch fluorescence ratio of 1.004 ± 0.0064.
TTTCACTATT was tested, and the switch fluorescence ratio was 1.01 ± 0.026.
AGGTTGAAGC gave a switch fluorescence ratio of 0.993 ± 0.017.
Sequence TTTGGCCCTT has a switch fluorescence ratio of 1.02 ± 0.027.
GTGTACTCAT was tested, and the switch fluorescence ratio was 1.01 ± 0.035.
TGAGCTGGTA was tested, and the switch fluorescence ratio was 0.981 ± 0.034.
In the case of ATTGTGAGGG, the switch fluorescence ratio is reported as 0.993 ± 0.011.
AGTGGATATT was tested, and the switch fluorescence ratio was 1.02 ± 0.011.
AGAGTTTGTG showed a switch fluorescence ratio of 0.978 ± 0.015.
Work on CTCTGTTACA yielded a switch fluorescence ratio of 1.04 ± 0.038.
In the case of CCGCACGAGT, the switch fluorescence ratio is reported as 3.73 ± 0.63.
CCAGGTAGG showed a switch fluorescence ratio of 1.24 ± 0.068.
GGGGGCGCGT was tested, and the switch fluorescence ratio was 1.02 ± 0.038.
For TTTCCCGTTT, the switch fluorescence ratio was 1.13 ± 0.095.
AAATCTGTAA showed a switch fluorescence ratio of 1.03 ± 0.06.
Work on GGTGCTTATA yielded a switch fluorescence ratio of 1 ± 0.013.
With GGGGCCCATG the switch fluorescence ratio was 0.992 ± 0.021.
AATAGTTTG showed a switch fluorescence ratio of 1.01 ± 0.017.
TGGGTAAAGC showed a switch fluorescence ratio of 1.03 ± 0.017.
Work on CAAGACTTGC yielded a switch fluorescence ratio of 1.03 ± 0.045.
Work on GATCTTTGTT yielded a switch fluorescence ratio of 1.009 ± 0.0093.
Sequence GCTTTTCGTA has a switch fluorescence ratio of 0.9995 ± 0.0064.
AGAGAAGATG showed a switch fluorescence ratio of 1.01 ± 0.034.
For TAGAGACTAA, the switch fluorescence ratio was 0.979 ± 0.029.
GGAATGTGAA gave a switch fluorescence ratio of 0.978 ± 0.019.
Sequence GGTGGATTCG has a switch fluorescence ratio of 1.06 ± 0.063.
GGGGGCGTAC was tested, and the switch fluorescence ratio was 1.06 ± 0.083.
In the case of GTGGGCTTGT, the switch fluorescence ratio is reported as 0.979 ± 0.048.
Sequence TTTGATGAGT has a switch fluorescence ratio of 1.01 ± 0.013.
For TTTGACCCTA, the switch fluorescence ratio was 1.04 ± 0.019.
Sequence GTTATATATG has a switch fluorescence ratio of 1.015 ± 0.0029.
In the case of GAGATGAAAC, the switch fluorescence ratio is reported as 0.976 ± 0.011.
ATTAGTCGCT showed a switch fluorescence ratio of 0.978 ± 0.019.
In the case of TTAAGTAAGG, the switch fluorescence ratio is reported as 1.03 ± 0.016.
Sequence GTTCGGCGAA has a switch fluorescence ratio of 1.02 ± 0.024.
CATCGCATTT was tested, and the switch fluorescence ratio was 2.32 ± 0.91.
ATATTGAGGT gave a switch fluorescence ratio of 1 ± 0.013.
CATCAAGGTA showed a switch fluorescence ratio of 1.04 ± 0.025.
Sequence TTATCTAGTG has a switch fluorescence ratio of 0.9894 ± 0.0054.
GGTTGGTCTT gave a switch fluorescence ratio of 0.974 ± 0.041.
In the case of AGGGAACGAC, the switch fluorescence ratio is reported as 1.03 ± 0.05.
For GGTCCTTGTT, the switch fluorescence ratio was 1.005 ± 0.0018.
AGCGAAAAGG was tested, and the switch fluorescence ratio was 1 ± 0.041.
Sequence TTCGTACCGC has a switch fluorescence ratio of 1.09 ± 0.029.
TCAGTGTTTT gave a switch fluorescence ratio of 1 ± 0.04.
With GGCTTAAGAT the switch fluorescence ratio was 0.998 ± 0.017.
